Experimental findings from patent publication US20260125649A1, “MEDIUM COMPOSITION AND METHOD FOR CULTURING MESENCHYMAL STEM CELLS” (ACADEMIA SINICA, priority 2018, published 2026) are described below.

For one assay, the system named is TACE. As to the kind of experiment: TACE activity assay in MSC lysates. The class given is cell-based, human. As to conditions: EpEX-stimulated MSCs. On the procedure: FIG. 9. EpEX induces the phosphorylation and activity of TACE and γ-secretase. MSCs were stimulated by EpEX for the indicated times, and the activity of TACE and γ-secretase were detected. MSCs were stimulated by EpEX (3 μg/mL) for the indicated times. Western blot analysis was performed to detect the phosphorylation of TACE and Presenilin 2.
ADAM17 activity was measured using the InnoZyme ADAM17 activity kit (Calbiochem). In brief, cell lysates were harvested and loaded into a TACE antibody-coated plate. After 1 h incubation, the lysate was removed and the plate was washed twice. Substrate was added into each well for 5 h at 37° C. After incubation, the fluorescence signal of the reaction product was detected at excitation of 324 nm and emission of 405 nm. For the detection of γ-secretase activity, cell lysates were extracted and 500 μg protein was used. γ-secretase activity was detected by γ-secretase substrate (35 μM).

Assay [1] deals with cyclin A2, cyclin D1, cyclin D2, cyclin D3, cyclin E1, CDK4, CDK9, Oct4, Sox2, c-Myc, Lin28. As to the kind of experiment: Western blotting of cell cycle regulators and pluripotency factors in MSCs. The class given is cell-based, human. To be noted: EpEX 3 μg/mL. On the procedure:
The proliferation of MSCs was examined by measuring doubling time. MSCs were treated with EpEX (3 μg/mL) for 24 and 48 h. Cell number was counted and then doubling time was calculated. MSCs were treated with EpEX (3 μg/mL) for the indicated times. After treatment, protein expression of cell cycle regulators (cyclin D1, cyclin D2, cyclin D3, cyclin E1, CDK4 and CDK9) and pluripotency factors (Oct4, Sox2, c-Myc, and Lin28) was examined by Western blotting.
Phospho-EGFR (Tyr845) was detected by Western blotting. […] After treatment, cell cycle progression was investigated by flow cytometry with PI staining. Fraction of cells in each phase (G1, S, G2/M) of the cell cycle was evaluated. Cells that expressed EGFR shRNA or shLuc were treated with EpEX for 18 h. After treatment, cell cycle progression was investigated by flow cytometry with PI staining. Fraction of cells in each phase (G1, S, G2/M) of the cell cycle was evaluated. […]
After treatment, the protein levels of total STAT3 and phospho-STAT3 (Tyr705) were examined by Western blotting. […] Fraction of cells in each phase (G1, S, G2/M) of the cell cycle was evaluated. […] Fraction of cells in each phase (G1, S, G2/M) of the cell cycle was evaluated. […]
The expression of let-7 was detected by qPCR. […] The expression of let-7 was detected by qPCR. […]

B1: EpEX: extracellular domain of human EpCAM, 265 amino acids in length (SEQ ID NO: 2) (protein, listed as Homo sapiens)
chain: MAPPQVLAFGLLLAAATATFAAAQEECVCENYKLAVNCFVNNNRQCQCTSVGAQNTVICSKLAAKCLVMKAEMNGSKLGRRAKPEGALQNNDGLYDPDCDESGLFKAKQCNGTSMCWCVNTAGVRRTDKDTEITCSERVRTYWIIIELKHKAREKPYDSKSLRTALQKEITTRYQLDPKFITSILYENNVITIDLVQNSSQKTQNDVDIADVAYYFEKDVKGESLFHSKKMDLTVNGEQLDLDPGQTLIYYVDEKAPEFSMQGLK
Take B1: the “activation of TACE” value in the assay on TACE was “induced”. Also, in assay [1], the “protein expression of cell cycle regulators (cyclin A2, D1, D2, D3, E1, CDK4, CDK9)” value is “significantly increased” and the “protein expression of pluripotency markers (Oct4, Sox2, c-Myc, Lin28)” value is on record as “significantly increased”.
